The nature of this data set: yeast display, Sf9 membrane polyspecificity reagent, FACS + sequencing; frameworks hold sequencing errors. Summed up:
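Sorting gates, low and high (top ~1%), were placed on anti-HA fluorescence to track expression and on streptavidin fluorescence to track reagent binding. A clone's polyreactivity label is taken from the gate it came out of. The reagent was 10% biotinylated, detergent-solubilized Sf9 membrane, applied for 1 hour at 4 °C to galactose-induced yeast display cells.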
Take “QVQLVESVVGLVQAGGSLRLSCAASGSTFYTYAMGWYRQAPGKERELVAAISYRGGSTYYADSVKGRFTISRDNAKNTVDLQMNSLKPEDTAVFYCNVDGVVVGNKRGGYDYWGQGTQVTVSS”: the “polyreactivity (PSR sort gate)” value is “low polyreactivity”. With “QVQLVESGGGLVQAGGSLRLSCAASGSTFGGNAMGWYRKAPGKERELVAVISKRGGSTYYADSVKGRFTISRDNAKNTVYLQMNSLKPEDTAVYYCAATYSRYWSPTYDYWGQGTQVTVSS”, the “polyreactivity (PSR sort gate)” value is reported as “high polyreactivity”.

Regarding “QVQLVESGGGLVQAGGSLRLSCAASGSIFDYYAMGWYRQAPGKERELVAAISESSDSTYYADSVKGRFTISRDNAKNTVYLQMNSLKPEDTAVYYCAAYRGTLLTAYDYWGQGTQVTVSS”, the “polyreactivity (PSR sort gate)” value is given as “low polyreactivity”. With “QVQLVESGGGLVQAGGSLRLSCAASGSTVNKYAMGWYRHAPGKERELVAAITTSGGRTYYADSVKGRFTISRDNAKNTVYLQMNSLKPEDTAVYYCNARIRRNYAYPKGESWGQGTQVTVSS”, the “polyreactivity (PSR sort gate)” value was “high polyreactivity”. The value for “QVQLVESGGGLVQAGGSLRLSCAASGRIFGFYAMGWYRQAPGKERELVARITLSGGRTYYADSVKGRFTISRDNAKNTVYLQMNSLKPEDTAVYYCAAVSYSKRTWSMNYWGQGTQVTVSS” was “high polyreactivity”; that for “QVQLVESGGGLVQAGGSLRLSCAASGFTFRYYAMGCYRQAPGKVRELVAAITGSGTRTYYADSVKGRFTISRDNAKNTVYLQMNSLKPEDTALYYCNAPRQPRWFDYWGQGTQVTVSS” was “high polyreactivity”; that for “QVQLVESGGGLVQAGGSLRLSCAASGSTFRRNAMGWYRKAPGKERELVAAISSTGGSTRYADSVKGRFTISRDNAKNTVYLQMNSLKPEDTAVYYCAARFSASGSFYYWGQGTQVTVSS” was “high polyreactivity”.

Take “QVQLVESGGGLDQAGGSLRLSCAASGSIFGYYAMGWYRQAPGKERELVAAISRSGGSTYYADSVKGRFTISRDNAKNTVYLQMNSLKPEDTAVYYCAARPPYRVGIVPLGRREYYWGQGTQVTVSS”: the “polyreactivity (PSR sort gate)” value was “high polyreactivity”. The same measure for “QVQLVESGGGLVQAGGSLRLICAASGGIFDFYAMGWYRQAPGKERELVAAITRSGSSTFYADSVKGRFTISRDNAKNTVYLQMNSLKPEDTAVYYCAAPYYYFAVYYGYIFEYDYWGQGTQVTVSS”: “low polyreactivity”. For the sequence “QVQLVESGGGLVQAGGSLRLSCAASGSIFYGNAMGWYRQAPGKERELVAAISQSGSRTYYADSVKGRFTISRDNAKNTVYLQMNSLKPEDTAVYYCAARARIYNYWGQGTQVTVSS”, the “polyreactivity (PSR sort gate)” value is “high polyreactivity”.

With “QVQLVESGGGLVQAGGSLRLSCAASGSIFYKNAMGWYRQAPGKVRELVAAITGSGGRTYYADSVKGRFTISRDNAKNTVYLQMNSLKPEDTAVYYCNTDPSPRYRYDYWGQGTQVTVSS”, the “polyreactivity (PSR sort gate)” value is recorded as “high polyreactivity”. With “QVQLVESGGGLVQAGGSLRLSCAASGRIFARNAMGWSRQAPGKERELVAAISGGGNTYADSVKGRFTISRDNAKNTVYLQMNSLKPEDTAVYYCARVVHFRGVRYDYWGQGTQVTVSS”, the “polyreactivity (PSR sort gate)” value is “high polyreactivity”. On to “QVQLVESGGGVVQAGGSLRLSCAASGSIIWWYAMGWYRQAPGKERELVARMNKRSGSTYYADSVKGRFTISRDNAKNTVYLLRNSLKPEDTAVYYCAATWRSSGIAFFYWGQGTQVTLSS”, for which the “polyreactivity (PSR sort gate)” value is given as “high polyreactivity”.

Take “QVHLVESGGGLVQAGGSLRLSCAASGRIFGVYAMGWYRQAPGKERELVAVISWSGTSTYYADSVKGRFTISRDYAKNTVYLQMNSLKPEDTAVYYCAADYIGITDYYAIVVYLGYDSWGQGTQVTVSS”: the “polyreactivity (PSR sort gate)” value was “high polyreactivity”. As to “QVQLVESGGGLVQAGGSLRLSCAASGSIFLIYARGSYRQAPGKERELVAAISGRVGSTYYADSVKGRFTISRDNAINTVYLQMNSLKPEDTAVYYCAARNSYGNWRYYYWGQGTQVTVSS”, the “polyreactivity (PSR sort gate)” value is recorded as “high polyreactivity”. With “QVQLVESGGGLVQAGGSLRLSCAASGFIFLYYAMGWYRQAPGKERELVAAISSSGGSTYYADSVKGRFTISRDNAKNTVYLQMNSLKPEDTAVYYCAARRKGKARVPQYDYWGQGTQVTVSS”, the “polyreactivity (PSR sort gate)” value is “high polyreactivity”. The value for “QVQLVESGGGLVQAGGSLRLSCAASGFTINFYSLGWYRQAPGKERELVAAITASGGGSTYYADSVKGRFTISRDNAKNTVYLQMNSLKQEDTAVYYCNADFTGSFYTYEYWGQGTQVTVAS” was “low polyreactivity”. Regarding “QVQLVESGGGLVQAGGSLRLSCAASGLTFGDYALGWYRQAPGKDRELVAVISRSGGSTYYADSVKGRFTISRDNAKNTVYLQMNSLKPEDTAVYYCAAEYYSYRYDGDYWGQGTQVTVSS”, the “polyreactivity (PSR sort gate)” value is listed as “low polyreactivity”. Regarding “QVQLVESGGGLVQAGGSLSLSCAASGFISASNVMGWYRHAPGKERELVAAINWSGDNTYYADSVKWRFTISRDTAKNTVYLLMNSLKAEDTAVYYCNDDVYSYATPEMDYWGQGTQVTVSS”, the “polyreactivity (PSR sort gate)” value is “low polyreactivity”. The same measure for “QVQLVESGGGLVQAGGSLRLSCAASGITFDSYAMGWYRQAPGKERELVAAISYSGGSTYYADSVKGCFTISRDNAKNTVYLQMNSLKPEDTAVYYCAAASDDDYDYWGQGTQVTVSS”: “low polyreactivity”; for “QVQLQEGGGGLVQAGGSLRLSCAASGYIFNGDWKGWYRQAPGKERELVATINYGATTNYADSVKGRFTISRDNAKNTVYLQMNSLKPEDTAVYYCAVGGHGAQLYVYWGQGTQVTVSN”: “high polyreactivity”; for “QVQLVESGGGLVQAGGSLRLSCAASGLTFGTNAMGWYRQAPGKERELVAAISTSSGSTYYADSVKGRFTISRDNAKNTVYLQMNSLKPEDTAVYYCAAVTVTKMSYYRYYYWGQGTQVTVSS”: “low polyreactivity”. With “QVQLVESGGGLVQAGGSLRLSCASSGLTFRYNAMGWYRQAPGKERELVAAIRTSGGSTYYADSVKGRFTISRDNAKNTVYLQMNSLKPEDTAVYYCAARSKSYYGGYARGYWGQGTQVTVSS”, the “polyreactivity (PSR sort gate)” value was “high polyreactivity”.

Consider “QVQLVESGGGLVQAGGSLRLSCAASGSTFSNNAMAWYRQAPGKERELVAGINSSGGRTYYADSVKGRFTISRDNAKNTVYLQMISLKPEDTAVYYCAAESRYYYELGYWGQGTQVTVSS”, for which the “polyreactivity (PSR sort gate)” value is “high polyreactivity”. Consider “QVQLVESGGGLVQAGGSLRLSCAASGSTFNFYAMGWYRQAPGKEREFVAAITSSGDSTYYADSVKGRFTISRDHAKTTVYLQMNSLKPEDTAVYYCAARLRWRYSYDYWGQGTQVTVSS”, for which the “polyreactivity (PSR sort gate)” value is on record as “high polyreactivity”. As to “QVQLVESGGGLLQAAGSLRLSCAASGIIFHIYAMGWYRQAPGKERELVAAISTGSSTYYADSVKGRFTISRDNAKNTVYLQMKSLKPEDTAVYYCNAVSRLLWVKGFDYWGQGTQVTVSS”, the “polyreactivity (PSR sort gate)” value is “low polyreactivity”. As to “QVQLVESGGGLVQAGGSLRLSCAASGSPFFRNAMGWYRPAPGTERELVADISASGGSTYYADSVKGRFTLSRDNAKNTVNLQMNSLKPEDTAVYSCNALYIYSYNYLTMDYWGQGTQVTVSS”, the “polyreactivity (PSR sort gate)” value was “low polyreactivity”.

Consider “QVQLVESGGGLVQAGGSLRLSCAASGRTFYLYTKGWYRQAPGKERELVAAISRGGRTYADSVKGRFTISRDNAKNTVYLQMNSLKPEDTAVDYCNRELTSPRRWHVSRAYDYWGQGTQVTVSS”, for which the “polyreactivity (PSR sort gate)” value is “low polyreactivity”. As for “QVQLVESGGGLVQAGGSLRLSCAASGRTFVLYAMGWYRQAPGKERELVAAIRQSDVSTYYADSVKGRFTISRDNAKNTVFLQMNSLKPEDTAVFYCAARNRYRRRYYYWGQGTQVTVSS”, the “polyreactivity (PSR sort gate)” value is “high polyreactivity”. For “QVQLVESGGGLVQAGGSLRLSCAASGRTFSYNAMGWYRQAPGKERELVAVISASGGSTYYADSVKGRFTISRDNAKNTVYLQMNSLKPEDTAVYYCAKRRSPVERYDYWGQGTQVTVSS”, the “polyreactivity (PSR sort gate)” value is on record as “low polyreactivity”.

For the origin of these results see the nanobody polyreactivity screen of Harvey et al. (2022).
